Laboratory results taken from patent publication US20190367612A1 (Daiichi Sankyo, published 2019).

Columns and labels:
human GPRC5D = target: T1, human GPRC5D (human, UniProt Q9NZD1 1-345); experiment: flow cytometry on KHM-1B cells (human GPRC5D), PE anti-human IgG Fc detection, rMFI = MFI minus isotype control
T1 construct: whole, on cells; also called hGPRC5D; G-protein coupled receptor family C group 5 member D
Experimental: Human multiple myeloma cell line KHM-1B cells expressing GPRC5D were adjusted to a concentration of 2×10⁶ cells/mL with PBS containing 5% FBS, inoculated in an amount of 100 μL/well to a 96-well U-bottomed microplate, and centrifuged to remove the supernatant. The culture supernatant of each human anti-GPRC5D antibody (full-length IgG form containing C2037, C3048, C3015, or C3022) obtained in Example 10)-5 or Human IgG isotype control antibody (Calbiochem/Merck Millipore Corp.) adjusted to 14 ng/mL to 30 μg/mL was added thereto in an amount of 100 μL/well, and the plate was left standing at 4° C. for 1 hour. The cells were washed twice with PBS containing 5% FBS. Then, R-Phycoerythrin AffiniPure F(ab′)2 Fragment Goat Anti-Human IgG, Fcγ Fragment Specific (Jackson ImmunoResearch Laboratories, Inc.) diluted 100-fold with PBS containing 5% FBS was added thereto in an amount of 100 μL/well, and the plate was left standing at 4° C. for 1 hour. The cells were washed twice with PBS containing 5% FBS and then resuspended in PBS containing 5% FBS, followed by detection using a flow cytometer (FACSCanto™ II; Becton, Dickinson and Company). The data was analyzed using Flowjo (Tree Star, Inc.). The PE fluorescence intensity of the cell fraction was plotted to a histogram, and the mean fluorescence intensity (MFI) was calculated. The MFI value of the control antibody was subtracted from the MFI value of the GPRC5D antibody to calculate a relative value of MFI (rMFI).

[1] = target: T2, amino-terminal peptide of cynomolgus monkey GPRC5D …(Biotin)-NH2 (cynomolgus monkey, C-terminal lysine carrying biotin, C-terminal amide); experiment: ELISA, biotinylated peptide on NeutrAvidin
T2 construct: also called amino-terminal peptide of biotinylated cynomolgus monkey GPRC5D
T2 peptide: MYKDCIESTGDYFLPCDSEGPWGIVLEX
Experimental: (§1) NeutrAvidin diluted to 1 μg/mL with PBS was added in an amount of 50 μL/well to 96-well Maxi-sorp plate, and the plate was left standing overnight at 4° C. for immobilization. After washing three times with an ELISA buffer, the amino-terminal peptide of the biotinylated human or cynomolgus monkey GPRC5D (used in Example 10)-1) diluted to 1 μg/mL with PBS was added thereto, and the plate was shaken at room temperature for 1 hour. After washing three times with an ELISA buffer, the plate was blocked with Blocker Casein and washed three times with an ELISA buffer. Then, the culture solution of the IgG-expressing FreeStyle 293F cells was added to the plate and reacted at room temperature for 2 hours. After washing three times with an ELISA buffer, a horseradish peroxidase (HRP)-labeled anti-human Fab antibody (Jackson ImmunoResearch Laboratories, Inc.) diluted 2500-fold with ELISA buffer was added thereto in an amount of 50 μL/well and reacted at room temperature for 1 hour. After washing five times with an ELISA buffer, SuperSignal Pico ELISA Chemiluminescent substrate was added. After 10 minutes, the chemiluminescence was measured using a plate reader.

[2] = target: T3, human GPRC5D amino-terminal peptide MYKDCIESTGDYFLLCDAEGPWGIILE-K(Biotin)-NH2, having an intramolecular … (human, C-terminal lysine carrying biotin, C-terminal amide; intramolecularly formed disulfide bond); experiment: ELISA, chemiluminescence: biotinylated amino-terminal peptide of human GPRC5D on NeutrAvidin, culture supernatant of IgG-expressing cells (one concentration, not given), HRP anti-human Fab detection
T3 construct: Peptide Institute synthetic peptide; also called amino-terminal peptide of biotinylated human GPRC5D (disulfide bond present)
T3 peptide: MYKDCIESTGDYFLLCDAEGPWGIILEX
Experimental: as §1

binding result (human GPRC5D): binds
binding result [1]: binds
binding result [2]: binds
B1: IgG form of the human antibody C3015 (antibody, V domains shown)
VH: EVQLVESGGGVVQPGRSLRLSCAASGFTFRNYAMSWVRQAPGKGLEWVSGISGTGGSTYYADSVKGRFTISRDNSKDTLYLQLNSLRAEDTAVYYCAKSRSMSINYGMDVWGQGTTVTVSS
VL: SYELTQPPSVSVSPGQTVSITCSGDNLGDRYASWYQQKPGQSPVQVIYQDTKRPSGIPERFSGSNSGNTATLTISGTQAMDEADYYCQAWDSNTVVFGGGTKLTVLG
notes: Human IgG1; also called C3015 IgG form; full-length IgG form containing C3015
